Data on 1 molecule can be found in patent US12625138.

In experiment [1] the target is PRRSV viral lysate (Porcine Reproductive and Respiratory Syndrome Virus).
For experiment [2] the target is unchanged. The experiment can be described thus: ELISA, plate coated with 3.13 ng PRRSV viral lysate, 1 µg antibody. In general terms: ELISA stands for enzyme-linked immunosorbent assay.
Experiment [3] has the same target. The experiment can be described thus: ELISA, plate coated with 50.00 ng PRRSV viral lysate, 1 µg antibody.
Experiment [4] shares this target. In words: ELISA, plate coated with 0.78 ng PRRSV viral lysate, 1 µg antibody.
The target is the same in experiment [5]. In words: ELISA, plate coated with 6.25 ng PRRSV viral lysate, 1 µg antibody.
The target is the same in experiment [6]. In words: ELISA, plate coated with 25.00 ng PRRSV viral lysate, 1 µg antibody.
Experiment [7] deals with porcine coronavirus lysate. In words: ELISA Test 1, plate coated with viral lysate, antibody diluted 1:4000, Group 1.
The target in experiment [8] is porcine pseudorabies virus lysate. The description is as above.
Experiment [9] has as its target PRRSV viral lysate (Porcine Reproductive and Respiratory Syndrome Virus). The description is as above.
Experiment [10] deals with porcine coronavirus lysate. In words: ELISA Test 1, plate coated with viral lysate, antibody diluted 1:4000, Group 2.
The target in experiment [11] is porcine pseudorabies virus lysate. Described as above.
The target of experiment [12] is PRRSV viral lysate (Porcine Reproductive and Respiratory Syndrome Virus). The experiment is described as above.
Experiment [13] concerns the target porcine coronavirus lysate. In words: ELISA Test 2, plate coated with viral lysate, antibody diluted 1:4000.
Experiment [14] has as its target PRRSV viral lysate (Porcine Reproductive and Respiratory Syndrome Virus). The experiment is described as above.
The target is the same in experiment [15]. The experiment can be described thus: ELISA, plate coated with 1.56 ng PRRSV viral lysate, 1 µg antibody.
For experiment [16] the target is unchanged. The experiment can be described thus: ELISA, plate coated with 12.50 ng PRRSV viral lysate, 1 µg antibody.

Read-outs that look alike come from different tables or passages of the source.

B1: anti-PRRSV antibody 142 (antibody, V domains shown)
VH: EVQRVESGPGLVKPSQSLSLTCTVTGYSITNDYAWNWIRQFPGNKLEWMGYISYSGSTSYNPYLKSRISITRDTSKNQFFLQLNSVPTEDTATYYCARSTYGNYGYYYAMDCWGQGTSVTVSS
VL: DIVLTQSPASLAVSLGQRATISCRASESIEYYGTSLMQWYQQKPGQPPKLLIYAASNVESGVPARFSGSGSGTDFSLNIHPVEEDDIAMYFCQQSRKVPTFGGGTKLEIKR
For B1, the OD450 is 1.58 OD450 in [1]; 0.959 OD450 in [2]; 1.36 OD450 in experiment [3]; 0.984 OD450 in [4]; 1.16 OD450 in [5]; 1.3 OD450 in [6]. Further, the OD450 turned out to be 0.148 OD450 in experiment [7]; 0.082 OD450 in [8]; 0.385 OD450 in experiment [9]; 0.133 OD450 in experiment [10]; 0.08 OD450 in experiment [11]; 0.344 OD450 in experiment [12]. In addition, the OD450 in experiment [13] was found to be 0.136 OD450; in [14], 0.411 OD450; in [15], 1.05 OD450; in experiment [16], 1.11 OD450.
